This test has as its target maltose binding protein (MBP)-tagged ubiquitin. In words: ELISA. On the technique in general: ELISA stands for enzyme-linked immunosorbent assay.

As to “GST-tagged SUVR1 WIYLD domain (domain or fragment)”, the binding in ELISA relative to S4WIYLD (set to 1) (relative to S4WIYLD = 1) stood at 0.65.

On to “GST-tagged SUVR2 WIYLD domain (domain or fragment)”, for which the binding in ELISA relative to S4WIYLD (set to 1) (relative to S4WIYLD = 1) was 1.23.

Substance “GST-tagged SUVR4 WIYLD domain A32E (domain or fragment)” came in with a reduction of binding relative to wild-type S4WIYLD of 37%.
